Data taken from the RNAGym collection of RNA variant scans (doi:10.1073/pnas.2313332121).

B1: TPR t1 (parent)
chain: GACCAAUCUGCCCUCAGAGCUCGAGAACAUCUUCGGAUGCAGAGGAGGCAGGCUUCGGUGGCGCGAUAGCGCCAACGUCCUCAACCUCCAAUGCAUCCCACCACAUGAUGAUGCCUGAAGAGCCUUGGUUUUUUG

Variants of: B1
Assay: polymerase ribozyme fitness, log enrichment relative to wild type (log ratio); higher = more active; in vitro selection for triplet polymerase activity
Outline: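 After PCR construction and transcription, each subunit's mutant library from a heterodimeric triplet polymerase ribozyme was annealed with a biotinylated primer, the partner subunit and triplets. Incubation was frozen, at −7 °C, and extended constructs were gel-excised, bound to streptavidin beads and amplified by RT-PCR, in one selection round done in triplicate. Fitness is the logarithm of a genotype's enrichment divided by that of the wild type, from inverse-variance-weighted replicate averages of Illumina-sequenced inputs and outputs. The base of the logarithm is 2, and genotypes needed ≥10 input reads and ≥1 read per output.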

Row | Variant | polymerase ribozyme fitness (log ratio)
1 | GACCAAUCUGCCCUCAGAGCUCGAGAACAUCUUCGGAUGCAGAGGAGGCAGGCUUUGGUGGCGCGAUAGCGUCAACGUUCUCAACCUCCAAUGCAUCCCAACACAUGAUGAUGCCUGAAGAGCCUUGGUUUUUUG [C56U C72U C79U C101A] | -1.28
2 | GACCAAUCUGCCCUCAGAGCUCGAGAACAUCUUCGGAUGCAGAGGAGGCAGGCUUUGGUGGCGCGAUAGCGCCAACGUUCUCAACCUCCAAUGCAUCCCACCACAUGAUGAUCCCUGAAGAGCCUUGGUUUUUUG [C56U C79U G113C] | -2.44
3 | GACCAAUCUGCCCUCAGAGCUCGAGAACAUCUUCGGAUGCAGAGGAGGCAGGCUUUGGUGGCGCGAUAGCGCCAACGUCGUCAACCUCCAAUGCAUCCCACCACAUGAUGAUGCCUGAAGAGCCUUGGUUUUUUG [C56U C80G] | -5.25
4 | GACCAAUCUGCCCUCAGAGCUCGAGAACAUCUUCGGAUGCAGAGGAGGCAGGCUUUGGUGGCGCGAUAGCGCGAACGUCCUCAACCUCCUAUGCAUCCCACCACAUGAUGAUGCCUGAAGAGCCUUGGUUUUUUG [C56U C73G A90U] | -3.53
5 | GACCAAUCUGCCCUCAGAGCUCGAGAACAUCUUCGGAUGCAGAGGAGGCAGGCUUUGGUGGCGCGAUAGCGCCAACGUCCUCAACCUCCAAUGCAUCCCACCACAUGAUGAUGCCUGAAGAGGCUUGGUUUUUUG [C56U C123G] | 1.1
6 | GACCAAUCUGCCCUCAGAGCUCGAGAACAUCUUCGGAUGCAGAGGAGGCAGGCUUUGGUGGCGCGAUAGCGCCAACGUCCUCAACCUCCAAUGCAUCCCACCACAUGAUGAUGCCUGAAGAGACUUGGUUUUUUG [C56U C123A] | 0.593
7 | GACCAAUCUGCCCUCAGAGCUCGAGAACAUCUUCGGAUGCAGAGGAGGCAGGCUUUGGUGGCGCGAUAGCGCCAACGUCCUCAACCUCCAAUGCAUCCCACCACAUGAUGAUGCCUGAAGAGUCUUGGUUUUUUG [C56U C123U] | 1.04
8 | GACCAAUCUGCCCUCAGAGCUCGAGAACAUCUUCGGAUGCAGAGGAGGCAGGCUUUGGUGGCGCGAUAGCGUCAACGUCCUCAACCUCCAAUGCAUCCCACCACAUGAUGAUGCCCUAAUAGCCUUGGUUUUUUG [C56U C72U U116C G117U G120U] | -3.95
9 | GACCAAUCUGCCCUCAGAGCUCGAGAACAUCUUCGGAUGCAGAGGAGGCAGGCUUUGGUGGCGCGAUAGCGGCAACGUCCUCAACCUACAAUGCAUCCCACCACAUGAUGAUGCCUGAAGAGCCUUGGUUUUUUG [C56U C72G C88A] | -3.53
10 | GACCAAUCUGCCCUCAGAGCUCGAGAACAUCUUCGGAUGCAGAGGAGGCAGGCUUUGGUGGCGCGAUAGCGCUAACGUCCUCAACCUGCAAUGCAUCCCACCACAUGAUGAUGCCUGAAGAGCCUUGGUUUUUUG [C56U C73U C88G] | -1.95
11 | GACCAAUCUGCCCUCAGAGCUCGAGAACAUCUUCGGAUGCAGAGGAGGCAGGCUUUGGUGGCGCGAUAGCGCCAACGUCCUCAACCUCCAAUGCAUCCCACCACAUGAUGAUGGCUGAAGAGCCUUGGUUAUUUG [C56U C114G U131A] | -2.06
12 | GACCAAUCUGCCCUCAGAGCUCGAGAACAUCUUCGGAUGCAGAGGAGGCAGGCUUUGGUGGCGCGAUAGCGCCAACGUCCUCAAACUACAAUGCAUCCCACCACAUGAUGAUGCCUGAAGAGCCUUGGUUUUUUG [C56U C85A C88A] | -2.83
13 | GACCAAUCUGCCCUCAGAGCUCGAGAACAUCUUCGGAUGCAGAGGAGGCAGGCUUUGGUGGCGCGAUAGCGCCAACGUUCUCAACCUCCAACGCAUCCCACCACAUGAUGAAGCCUGAAGAGCCUUGGUUUUUUG [C56U C79U U92C U112A] | -0.412
14 | GACCAAUCUGCCCUCAGAGCUCGAGAACAUCUUCGGAUGCAGAGGAGGCAGGCUUUGGUGGCGCGAUAGCGCCAACGUCCUCAACCUCCAAUGUAUCCCACCACAUGAUGAUGCCUGAACUGCCUUUGUUUUUUG [C56U C94U G120C A121U G127U] | 0.202
15 | GACCAAUCUGCCCUCAGAGCUCGAGAACAUCUUCGGAUGCAGAGGAGGCAGGCUUUGGUGGCGCGAUAGCGCCAACGUCCUCAACCUCCAAUGCAUCCCAACACAUGAUGAUGACUGAAGAGCCUUGGUUUUUUG [C56U C101A C114A] | -2.61
16 | GACCAAUCUGCCCUCAGAGCUCGAGAACAUCUUCGGAUGCAGAGGAGGCAGGCUUUGGUGGCGCGAUAGCGCCAACGUCCUCAACCUCCAAUGCAUCCCACCACAUGAUGAUGCAUGAAGAGCCUUGGUUUUUUG [C56U C115A] | 0.248
17 | GACCAAUCUGCCCUCAGAGCUCGAGAACAUCUUCGGAUGCAGAGGAGGCAGGCUUUGGUGGCGCGAUAGCGCCAACGUCAUCAACCUCCAAUGCAUUCCACCACAUGAUGAUGCCUGAAGAGCCUUGGUUUUUUG [C56U C80A C97U] | -2.71
18 | GACCAAUCUGCCCUCAGAGCUCGAGAACAUCUUCGGAUGCAGAGGAGGCAGGCUUUGGUGGCGCGAUAGCGCCAACGUACUCAACCUCCAAUGCAUCCCACCACAUGAUGAUGCCUGAAGAGCCUUGGUUUUUUG [C56U C79A] | -0.918
19 | GACCAAUCUGCCCUCAGAGCUCGAGAACAUCUUCGGAUGCAGAGGAGGCAGGCUUUGGUGGCGCGAUAGCGCUAACGUCCUCAACCUCCAAUGCAUCCCACCACUUGAUGAUGCCUGAAGAGCCUUGGUUUUUUG [C56U C73U A105U] | -2.37
20 | GACCAAUCUGCCCUCAGAGCUCGAGAACAUCUUCGGAUGCAGAGGAGGCAGGCUUUGGUAGCGCGAUAGCGCCAACGUCCUCAACCUCCAAUGCAUCCCACCACAUGAUGAUGCCUGAAGAGCCUUGGUUUUUUG [C56U G60A] | -3.37
21 | GACCAAUCUGCCCUCAGAGCUCGAGAACAUCUUCGGAUGCAGAGGAGGCAGGCUUUGGUGGCGCGAUAGCGCCAACGUCCUCAACCUCCAAUGCAUCCCACCAGAUGAUGAUGCAUGAAGAGCCUUGGUUUUUUG [C56U C104G C115A] | -4.93

Row | Variant | polymerase ribozyme fitness (log ratio)
22 | GACCAAUCUGCCCUCAGAGCUCGAGAACAUCUUCGGAUGCAGAGGAGGCAGGCUUUGGUGGCGCGAUAGCGCCAACGUCCUCAACCUCCAAUGAAUCCCACCACAUGAUGAUGCCUGAAGAGCCUUGGUUUUUUG [C56U C94A] | -0.478
23 | GACCAAUCUGCCCUCAGAGCUCGAGAACAUCUUCGGAUGCAGAGGAGGCAGGCUUUGGUGGCGCGAUAGCGCCAACGUCCUCAACCUCCAAUGCAUCCCAGCACAUGAUGAUGCCUGCAGAGCGUUGGUUUUUUG [C56U C101G A118C C124G] | -2.41
24 | GACCAAUCUGCCCUCAGAGCUCGAGAACAUCUUCGGAUGCAGAGGAGGCAGGCUUUGGUGGCGCGAUAGCGCCAACGUCCUCAACCUCCAAUGCAUCCCACCACAUGAUGAUGCCUGAAGAGCUUUGGUUUUUUG [C56U C124U] | 1.6
25 | GACCAAUCUGCCCUCAGAGCUCGAGAACAUCUUCGGAUGCAGAGGAGGCAGGCUUUGGUGGCGCGAUAGCGCCAACGUCCUCAAACUCCAAUGCAUCCCACCACAUGAUGAUGCCUGAAGAGCCUUGGUUUUUUG [C56U C85A] | -1.96
26 | GACCAAUCUGCCCUCAGAGCUCGAGAACAUCUUCGGAUGCAGAGGAGGCAGGCUUUGGUGGCGCGAUAGCGCCAACGUCCUCAACCUACAAUGCAUCCCACCACAUGAUGAUGCCUGAAGAGCCUUGGUUUUUUG [C56U C88A] | -0.497
27 | GACCAAUCUGCCCUCAGAGCUCGAGAACAUCUUCGGAUGCAGAGGAGGCAGGCUUUGGUGGCGCGAUAGCGCCAACGUCCUCAACUUCUAAUGCAUCCCACCACAUGAUGAUGCCGGAAGAGCCUUGGUUUUUUG [C56U C86U C89U U116G] | -2.41
28 | GACCAAUCUGCCCUCAGAGCUCGAGAACAUCUUCGGAUGCAGAGGAGGCAGGCUUUGGUGGCGCGAUAGCGUCAACGUCCUCAACCUCCAAUGCAUCCCACCACAUGAUGAUGCCUGAACAGCCUUAGUUUUUCG [C56U C72U G120C G127A U134C] | -1.5
29 | GACCAAUCUGCCCUCAGAGCUCGAGAACAUCUUCGGAUGCAGAGGAGGCAGGCUUUGGUGGCGCGAUAGCGCCAACGUCCUCAACUUCCAAUGCAUCCCACCACAUGAUGAUGCCUGAAGAGCCUUGGUUUUUUG [C56U C86U] | -0.265
30 | GACCAAUCUGCCCUCAGAGCUCGAGAACAUCUUCGGAUGCAGAGGAGGCAGGCUUUGGUGGCGCGAUAGCGCGAACGUCCUCAACCUCCAAUGCAUCCCACCACAUGAUGAUGCUUGAAGAGCCUUGGUUUUUUG [C56U C73G C115U] | -3.6
31 | GACCAAUCUGCCCUCAGAGCUCGAGAACAUCUUCGGAUGCAGAGGAGGCAGGCUUUGGUGGCGCGAUAGCGCCAACGUCCUCAACCUCCAAUGCAUCCCAACACAUGAUGAUGCCUGAAGAGCCUUGGUUUUUUG [C56U C101A] | -1.79
32 | GACCAAUCUGCCCUCAGAGCUCGAGAACAUCUUCGGAUGCAGAGGAGGCAGGCUUUGGUGGCGCGAUAGCGCCAACGUCCUCAACCUCCAAUGCAUCCCAUCACAUGAUGAUGCCUGAAGAGCCUUGGUUUUUUG [C56U C101U] | 0.177
33 | GACCAAUCUGCCCUCAGAGCUCGAGAACAUCUUCGGAUGCAGAGGAGGCAGGCUUUGGUGGCGCGAUAGCGCCAACGUCCUCAACCUCCAAUGCAUCCCACCACAUGAUGAUGACUGAAGAGCCUUGGUUUUUUG [C56U C114A] | -1.27
34 | GACCAAUCUGCCCUCAGAGCUCGAGAACAUCUUCGGAUGCAGAGGAGGCAGGCUUUGGUGGCGCGAUAGCGCCAACGUCCUCAACCUCCAAUGCAUCCCACCACAUGAUGAUGGCUGAAGAGCCUUGGUUUUUUG [C56U C114G] | -2.54
35 | GACCAAUCUGCCCUCAGAGCUCGAGAACAUCUUCGGAUGCAGAGGAGGCAGGCUUUGGUGGCGCGAUAGCGCCAACGUCCUCAACCUCUAAUGCAUCCCACCACAUGAUGAUGCCCGAAGAGCCUUAGUUUUUUU [C56U C89U U116C G127A G135U] | -3.61
36 | GACCAAUCUGCCCUCAGAGCUCGAGAACAUCUUCGGAUGCAGAGGAGGCAGGCUUUGGUGGCGCGAUAGCGCUAACGUCCUCAACCUCCAAUGCAUCCCACCACAUGAAGAUGCCUGAAGAGCCUUGGUUUUUUG [C56U C73U U109A] | -4.36
37 | GACCAAUCUGCCCUCAGAGCUCGAGAACAUCUUCGGAUGCAGAGGAGGCAGGCUUUGGUGGCGCGAUAGCGCCAACGUACUCAACCUCCAAUGCAUCCUACAACAUGAUGAUGCCUGAAAAGCCUUUGUUUUUUG [C56U C79A C99U C102A G120A G127U] | -5.84
38 | GACCAAUCUGCCCUCAGAGCUCGAGAACAUCUUCGGAUGCAGAGGAGGCAGGCUUUUGUGGCGCGAUAGCGCCAACGUCCUCAACCUCCAAUGCAUCCCACCACAUGAUGAUGCCUGAAGAGCCUUGGUUUUUUG [C56U G57U] | -0.86
39 | GACCAAUCUGCCCUCAGAGCUCGAGAACAUCUUCGGAUGCAGAGGAGGCAGGCUUUUGUGGCGCGAUAGCGCCAACGUCCUCAACCUCCCAUGCAUCCCACCACAUGAUUAUGCCUGAAGAGCCUUGGUUUUUUG [C56U G57U A90C G110U] | -3.95
40 | GACCAAUCUGCCCUCAGAGCUCGAGAACAUCUUCGGAUGCAGAGGAGGCAGGCUUUGGUGGCGCGAUAGCGCCAACGUCCUCAACCUCCAAUGCAUCCCACAACAUGAUGAUGCCUGAAGAGCCUUGGGUUUUUG [C56U C102A U129G] | -3.35
41 | GACCAAUCUGCCCUCAGAGCUCGAGAACAUCUUCGGAUGCAGAGGAGGCAGGCUUUGGUGGCGCGAUAGCGCCAACGUACUCAACCUCCAAUGCAUCCCACCACAUGAUGAUUCCUGAAGAGCCUUGGUUUUUUG [C56U C79A G113U] | -4.28
42 | GACCAAUCUGCCCUCAGAGCUCGAGAACAUCUUCGGAUGCAGAGGAGGCAGGCUUUGGUGGCGCGAUAGCGCCAACGUCCUCAACCUCGAAUGCAUCCCACCACAUGAUGAUGCCUGAAGAGCCUUGGUUUUUUG [C56U C89G] | -1.27
